6 molecules from publication PMC5374059 (Journal of molecular biology, 2016) can be followed below.

Ends that are not written are not given here. Me3 = trimethyl-lysine; Me2 = dimethyl

Test [1] deals with Set3 PHD finger (wild type, as used in fluorescence and NMR titrations) (yeast) (UniProt P36124). Kind of test: NMR titration.
Test [2] concerns the target T131M mutant of Set3 PHD (yeast) (UniProt P36124). The test is described as follows: other fluorescence titration.
Test [3] has as its target Set3 PHD finger (wild type, as used in fluorescence and NMR titrations) (yeast) (UniProt P36124). Kind of test: other fluorescence titration.
The target of test [4] is T1, Set3 PHD finger (aa 116-184), crystallised (yeast, UniProt P36124 116-184).
T1 sequence (looked up): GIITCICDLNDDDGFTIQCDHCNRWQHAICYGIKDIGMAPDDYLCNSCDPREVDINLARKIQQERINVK
Kind of test: crystal structure.

The target of the next test is T2, M132T mutant of MLL5 PHD (human, UniProt Q8IZD2 117-181, M132T).
T2 sequence (looked up): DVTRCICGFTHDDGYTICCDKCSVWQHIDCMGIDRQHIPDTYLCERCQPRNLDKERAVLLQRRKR
The test is described as follows: NMR titration.

Turning to “histone H3K4me1 peptide (residues 1-12 of histone H3) (from UniProt P61830 2-13)”, the Kd in test [1] was 790 µM. For the molecule “histone H3K4me0 peptide (unmodified, residues 1-12 of histone H3) (from UniProt P61830 2-13)”, the Kd in test [1] was determined as 1400 µM. This Kd is about 1.8-fold higher than that of the molecule before. Regarding “histone H3K4me2 peptide (residues 1-12 of histone H3) (from UniProt P61830 2-13)”, the Kd in test [2] was 8 µM; in test [3], 30 µM. On the same counts, the results for “histone H3K4me3 peptide (residues 1-12 of histone H3) (from UniProt P61830 2-13)” are 2.5 µM and 20 µM.

As to ARTK(Me3)QTARKSTG (peptide, UniProt P61830 2-13, looked up) [histone H3K4me3 peptide (residues 1-12 of histone H3)], in test [4], the binding result is recorded as “binds”. For the same molecule, in the test with M132T mutant of MLL5 PHD, the “fold selectivity for H3K4me3 over H3K4me2” value was 1.5 fold. Consider ARTK(Me2)QTARKSTG (peptide, UniProt P61830 2-13, looked up) [histone H3K4me2 peptide (residues 1-12 of histone H3)], for which, in test [4], the binding result was “binds”.
